Measured values taken from PMC9187738.

Key:
pig JUNO (pig) = experiment: live imaging-based adhesion molecule (LIAM) assay; BHK cells, non-inducible expression (cytomegalovirus promoter); separately transfected cells mixed in equal amounts 4 h after transfection, incubated 20 h, imaged every 6 min for 12 h at 40x, 37 °C, 5% CO2; read-outs: accumulation at the cell interface and translocation to the opposite cell, % of contacting cell pairs
hamster JUNO (hamster) [1] = experiment: as above
human JUNO (human) = human JUNO (human) (UniProt A6ND01); experiment: as above
human JUNO (human), sequence (A6ND01 20-228): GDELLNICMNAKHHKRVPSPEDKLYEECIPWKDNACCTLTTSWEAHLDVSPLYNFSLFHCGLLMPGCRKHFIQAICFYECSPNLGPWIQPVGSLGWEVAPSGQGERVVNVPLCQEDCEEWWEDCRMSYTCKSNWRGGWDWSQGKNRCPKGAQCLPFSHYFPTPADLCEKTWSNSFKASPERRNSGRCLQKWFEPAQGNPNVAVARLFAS

hamster JUNO (hamster) [2] = experiment: live imaging-based adhesion molecule (LIAM) assay; HEK293T cells expressing IZUMO1 mixed with HEK293T cells expressing JUNO; read-out: accumulation at the interface of the cells, % of contacting cell pairs
[3] = target: mouse mCherry-JUNO (mouse) (UniProt Q9EQF4); experiment: live imaging-based adhesion molecule (LIAM) assay; BHK cells, non-inducible expression (cytomegalovirus promoter); separately transfected cells mixed in equal amounts 4 h after transfection, incubated 20 h, imaged every 6 min for 12 h at 40x, 37 °C, 5% CO2; read-outs: accumulation at the cell interface and translocation to the opposite cell, % of contacting cell pairs
mouse mCherry-JUNO (mouse), sequence (Q9EQF4 20-222): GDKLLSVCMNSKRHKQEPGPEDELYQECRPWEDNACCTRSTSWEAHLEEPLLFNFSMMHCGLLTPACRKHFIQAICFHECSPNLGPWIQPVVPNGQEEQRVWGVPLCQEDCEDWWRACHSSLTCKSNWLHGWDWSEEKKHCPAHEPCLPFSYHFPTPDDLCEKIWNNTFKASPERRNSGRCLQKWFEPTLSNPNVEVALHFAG

human IZUMO1, sequence (Q8IYV9 22-350): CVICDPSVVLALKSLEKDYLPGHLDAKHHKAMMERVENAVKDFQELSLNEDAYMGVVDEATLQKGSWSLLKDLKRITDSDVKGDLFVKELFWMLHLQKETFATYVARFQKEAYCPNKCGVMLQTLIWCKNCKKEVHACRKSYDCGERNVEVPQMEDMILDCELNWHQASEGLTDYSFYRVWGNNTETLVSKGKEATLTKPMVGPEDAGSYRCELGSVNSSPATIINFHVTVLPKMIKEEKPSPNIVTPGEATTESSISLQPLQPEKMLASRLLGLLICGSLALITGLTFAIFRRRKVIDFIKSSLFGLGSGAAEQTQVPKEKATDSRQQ

pig IZUMO1 (natural protein) was tested, and the IZUMO1 accumulation (% of contacting cell pairs) (pig JUNO (pig)) was 24%, the IZUMO1 accumulation (% of contacting cell pairs) (hamster JUNO (hamster) [1]) was 13% and the JUNO accumulation (% of contacting cell pairs) (hamster JUNO (hamster) [1]) was 7.1%. For the same substance, the IZUMO1 accumulation (% of contacting cell pairs) (human JUNO (human)) was 48%, the IZUMO1 translocation (% of contacting cell pairs) (human JUNO (human)) was 3.2% and the JUNO accumulation (% of contacting cell pairs) (human JUNO (human)) was 49%. The JUNO translocation (% of contacting cell pairs) (human JUNO (human)) was 32%.
With “human IZUMO1 (from UniProt Q8IYV9 22-350) (natural protein)” the IZUMO1 accumulation (% of contacting cell pairs) (hamster JUNO (hamster) [2]) was 9.3% and the JUNO accumulation (% of contacting cell pairs) (hamster JUNO (hamster) [2]) was 2.8%.
In the case of hamster IZUMO1 (natural protein), the IZUMO1 accumulation (% of contacting cell pairs) [3] is reported as 33%, the JUNO accumulation (% of contacting cell pairs) [3] is reported as 25% and the IZUMO1 accumulation (% of contacting cell pairs) (hamster JUNO (hamster) [1]) is reported as 77%. For the same substance, the IZUMO1 translocation (% of contacting cell pairs) (hamster JUNO (hamster) [1]) was 44%, the JUNO accumulation (% of contacting cell pairs) (hamster JUNO (hamster) [1]) was 16% and the JUNO translocation (% of contacting cell pairs) (hamster JUNO (hamster) [1]) was 28%.
